The EC50 is the concentration giving half of the maximal effect.

The results in this text go back to patent CN116178545A (GUANGDONG FEIPENG PHARMACEUTICAL CO LTD, dated 2023).

One assay addresses T1, 重组人PD-L2蛋白 (human, UniProt Q9BQ51 20-219).
T1 construct: The words 携带hFc标签的 stand before the first protein of the list; also called Acrobiosystem Cat.PD2-H5251
T1 sequence (looked up): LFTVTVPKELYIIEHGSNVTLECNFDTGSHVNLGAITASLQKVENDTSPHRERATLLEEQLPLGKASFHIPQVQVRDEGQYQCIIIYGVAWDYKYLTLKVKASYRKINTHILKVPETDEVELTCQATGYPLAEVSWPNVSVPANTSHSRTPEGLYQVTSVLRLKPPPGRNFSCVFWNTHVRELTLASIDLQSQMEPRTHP
Briefly: ELISA, protein coated at 1μg/ml. In general terms: An ELISA detects its analyte on a solid surface through an enzyme-linked reagent.

The next assay has as its target T2, 重组人PD-1蛋白(自产) (human, UniProt Q15116 25-167).
T2 construct: The words 携带hFc标签的 stand before the first protein of the list
The experiment in a line: ELISA, protein coated at 1μg/ml.

The next assay concerns the target T3, 重组人ICOS蛋白 (human, UniProt Q9Y6W8 21-140).
T3 construct: The words 携带hFc标签的 stand before the first protein of the list; also called Acrobiosystem Cat.ICS-H5250
T3 sequence (looked up): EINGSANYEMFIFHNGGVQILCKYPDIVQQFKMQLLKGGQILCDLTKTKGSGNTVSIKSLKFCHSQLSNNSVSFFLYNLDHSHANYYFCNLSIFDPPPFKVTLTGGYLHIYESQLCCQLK
The experiment in a line: ELISA, protein coated at 1μg/ml.

The target of another assay is T4, 重组人ICOSLG蛋白 (human, UniProt O75144 19-258).
T4 construct: The words 携带hFc标签的 stand before the first protein of the list; also called Acrobiosystem Cat.B72-H5254
T4 sequence (looked up): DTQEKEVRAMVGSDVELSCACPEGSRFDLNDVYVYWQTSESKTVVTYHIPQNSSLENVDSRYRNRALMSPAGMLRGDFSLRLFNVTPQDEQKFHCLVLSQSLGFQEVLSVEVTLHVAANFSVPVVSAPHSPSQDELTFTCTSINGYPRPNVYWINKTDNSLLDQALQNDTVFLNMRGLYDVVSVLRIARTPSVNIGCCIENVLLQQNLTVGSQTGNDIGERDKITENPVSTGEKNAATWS
The experiment in a line: ELISA, protein coated at 1μg/ml.

A further assay addresses T5, 重组人CD276蛋白 (human, UniProt Q5ZPR3-2 29-245).
T5 construct: The words 携带hFc标签的 stand before the first protein of the list; also called B7-H3; Acrobiosystem Cat.B73-H5253
T5 sequence (looked up): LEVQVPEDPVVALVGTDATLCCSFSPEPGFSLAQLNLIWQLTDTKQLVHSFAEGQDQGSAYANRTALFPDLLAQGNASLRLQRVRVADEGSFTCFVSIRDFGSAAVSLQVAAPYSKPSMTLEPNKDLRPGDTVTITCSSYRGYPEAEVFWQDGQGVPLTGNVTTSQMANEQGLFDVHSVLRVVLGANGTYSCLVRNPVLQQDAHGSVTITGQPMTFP
Briefly: ELISA, protein coated at 1μg/ml.

The next assay deals with T6, 重组人CD86蛋白 (human, UniProt P42081 26-247).
T6 construct: The words 携带hFc标签的 stand before the first protein of the list; also called Acrobiosystem Cat.CD6-H5257
T6 sequence (looked up): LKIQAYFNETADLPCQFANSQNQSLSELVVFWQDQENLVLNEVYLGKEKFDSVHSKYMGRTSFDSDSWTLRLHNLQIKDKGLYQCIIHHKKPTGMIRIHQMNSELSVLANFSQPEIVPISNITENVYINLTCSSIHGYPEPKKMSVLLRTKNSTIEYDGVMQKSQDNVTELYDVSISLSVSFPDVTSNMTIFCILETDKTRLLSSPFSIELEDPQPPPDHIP
Briefly: ELISA, protein coated at 1μg/ml.

For a further assay, the target named is T7, 重组人CD28蛋白 (human, UniProt P10747 19-152).
T7 construct: The words 携带hFc标签的 stand before the first protein of the list; also called Acrobiosystem Cat.CD8-H525a
The experiment in a line: ELISA, protein coated at 1μg/ml.

In a further assay the target is T8, 重组人CTLA-4蛋白 (human, UniProt P16410 37-162).
T8 construct: The words 携带hFc标签的 stand before the first protein of the list; also called Acrobiosystem Cat.CT4-H5255
The experiment in a line: ELISA, protein coated at 1μg/ml.

A further assay concerns the target T9, 小鼠PD-L1 (on CHO cells) (mouse, UniProt Q9EP73 19-290).
T9 construct: whole, on cells; also called CHO-mPD-L1稳定细胞株; 稳定表达全长小鼠PD-L1的CHO
Briefly: flow cytometry on CHO-mPD-L1 cells. A general note: A flow cytometer gives signals particle by particle.

A further assay concerns the target T10, 人PD-L1 (on cells) (human, UniProt Q9NZQ7 19-290).
T10 construct: whole, on cells; One molecule for human PD-L1 on CHO-hPD-L1, on IFNγ-stimulated A375 and on CHO-hPD-L1-OKT3 cells; the cell is named under assay; also called CHO-hPD-L1稳定细胞株; 稳定表达人PD-L1的CHO
Briefly: flow cytometry on IFNγ-stimulated A375 cells.

T9 sequence (Q9EP73 19-290): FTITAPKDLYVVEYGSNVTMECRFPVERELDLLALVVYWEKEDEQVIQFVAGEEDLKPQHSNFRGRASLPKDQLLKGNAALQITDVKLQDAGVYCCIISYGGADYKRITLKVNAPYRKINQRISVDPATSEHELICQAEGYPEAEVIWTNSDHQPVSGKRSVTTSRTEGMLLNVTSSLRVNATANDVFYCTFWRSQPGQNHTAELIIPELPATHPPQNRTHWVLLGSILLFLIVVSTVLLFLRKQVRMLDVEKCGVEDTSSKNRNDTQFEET
T8 sequence (P16410 37-162): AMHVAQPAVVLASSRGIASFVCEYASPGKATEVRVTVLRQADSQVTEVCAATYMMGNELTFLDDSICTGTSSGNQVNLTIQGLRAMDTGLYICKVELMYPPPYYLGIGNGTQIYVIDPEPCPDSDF
T10 sequence (Q9NZQ7 19-290): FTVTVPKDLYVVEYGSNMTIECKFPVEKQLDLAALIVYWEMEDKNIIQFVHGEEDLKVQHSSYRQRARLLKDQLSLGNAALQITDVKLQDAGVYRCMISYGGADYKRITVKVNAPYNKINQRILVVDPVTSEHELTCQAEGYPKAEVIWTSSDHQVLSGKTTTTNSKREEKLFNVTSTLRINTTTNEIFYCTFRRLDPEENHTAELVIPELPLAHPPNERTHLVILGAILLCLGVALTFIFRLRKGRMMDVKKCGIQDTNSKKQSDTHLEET
T2 sequence (Q15116 25-167): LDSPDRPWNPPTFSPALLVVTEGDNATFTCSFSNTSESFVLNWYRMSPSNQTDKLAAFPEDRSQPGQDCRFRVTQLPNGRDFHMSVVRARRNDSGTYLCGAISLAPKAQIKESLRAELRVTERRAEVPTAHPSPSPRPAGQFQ

B1: 176L1H2 (antibody, V domains shown)
VH: QVQLQESGPGLVKPSETLSLTCAVYGDSITSGYWNWIRKPPGKKLEYIGYISYTGSTYQNPSLKSRITMSRDTSKNQYYLKLSSVTAADTAVYYCARSRAWIRTYFDYWGQGTLVTVSS
VL: EIVLTQSPDFQSVTPKEKVTITCSVSSSISSSNLHWYQQKPDQSPKLWIYGTSNLASGVPSRFSGSGSGTDYTLTINSLEAEDAATYYCQQWSSYPLTFGQGTKLEIKR
notes: Whole humanized mAb expressed in 293 cells; detected with anti-human IgG; also called 抗人PD-L1人源化抗体176L1H2
Consider B1, for which the binding result with 重组人PD-L2蛋白, in the assay with 重组人PD-1蛋白(自产), in the assay with 重组人ICOS蛋白, with 重组人ICOSLG蛋白, with 重组人CD276蛋白 and in the assay with 重组人CD86蛋白 was “no binding (tested: 10μg/ml)” each time. Moreover, the binding result with 重组人CD28蛋白 is listed as “no binding (tested: 10μg/ml)”; with 重组人CTLA-4蛋白, “no binding (tested: 10μg/ml)”; in the assay with 小鼠PD-L1 (on CHO cells) it was “no binding (tested: 20μg/ml)”. Besides, the half-maximal effective concentration (EC50) with 人PD-L1 (on cells) is approximately 0.2 nM.

B2: 176L1H1 (antibody, V domains shown)
VH: QVQLQESGPGLVKPSETLSLTCAVYGDSITSGYWNWIRKPPGKGLEYIGYISYTGSTYQNPSLKSRITMSRDTSKNQYYLKLSSVTAADTAVYYCARSRAWIRTYFDYWGQGTLVTVSS
VL: EIVLTQSPDFQSVTPKEKVTITCSVSSSISSSNLHWYQQKPDQSPKLWIYGTSNLASGVPSRFSGSGSGTDYTLTINSLEAEDAATYYCQQWSSYPLTFGQGTKLEIKR
notes: Whole humanized mAb expressed in 293 cells, protein A purified; hIgG1 isotype control; detected with anti-human IgG; also called 抗人PD-L1人源化抗体176L1H1
On to B2, for which the binding result with 重组人PD-L2蛋白, in the assay with 重组人PD-1蛋白(自产), with 重组人ICOS蛋白, in the assay with 重组人ICOSLG蛋白, with 重组人CD276蛋白 and in the assay with 重组人CD86蛋白 was “no binding (tested: 10μg/ml)” in each case. The binding result with 重组人CD28蛋白 was “no binding (tested: 10μg/ml)”; in the assay with 重组人CTLA-4蛋白, “no binding (tested: 10μg/ml)”; in the assay with 小鼠PD-L1 (on CHO cells), “no binding (tested: 20μg/ml)”. The molecule further showed an EC50 in the assay with 人PD-L1 (on cells) of approximately 0.2 nM.

B3: 176L2H2 (antibody, V domains shown)
VH: QVQLQESGPGLVKPSETLSLTCAVYGDSITSGYWNWIRKPPGKKLEYIGYISYTGSTYQNPSLKSRITMSRDTSKNQYYLKLSSVTAADTAVYYCARSRAWIRTYFDYWGQGTLVTVSS
VL: EIVLTQSPDFQSVTPKEKVTITCSVSSSISSSNLHWYQQKPDQSPKPWIYGTSNLASGVPSRFSGSGSGTDYTLTINSLEAEDAATYYCQQWSSYPLTFGQGTKLEIKR
notes: Whole humanized mAb expressed in 293 cells; detected with anti-human IgG; also called 抗人PD-L1人源化抗体176L2H2
With B3, the binding result in the assay with 重组人PD-L2蛋白, with 重组人PD-1蛋白(自产), in the assay with 重组人ICOS蛋白, with 重组人ICOSLG蛋白, with 重组人CD276蛋白 and with 重组人CD86蛋白 was “no binding (tested: 10μg/ml)” in each case. Besides, the binding result with 重组人CD28蛋白 is given as “no binding (tested: 10μg/ml)”; with 重组人CTLA-4蛋白, “no binding (tested: 10μg/ml)”; with 小鼠PD-L1 (on CHO cells), “no binding (tested: 20μg/ml)”. The same molecule returned an EC50 in the assay with 人PD-L1 (on cells) of approximately 0.2 nM.

B4: 176L2H1 (antibody, V domains shown)
VH: QVQLQESGPGLVKPSETLSLTCAVYGDSITSGYWNWIRKPPGKGLEYIGYISYTGSTYQNPSLKSRITMSRDTSKNQYYLKLSSVTAADTAVYYCARSRAWIRTYFDYWGQGTLVTVSS
VL: EIVLTQSPDFQSVTPKEKVTITCSVSSSISSSNLHWYQQKPDQSPKPWIYGTSNLASGVPSRFSGSGSGTDYTLTINSLEAEDAATYYCQQWSSYPLTFGQGTKLEIKR
notes: Whole humanized mAb expressed in 293 cells; detected with anti-human IgG; also called 抗人PD-L1人源化抗体176L2H1
Consider B4, for which the binding result with 重组人PD-L2蛋白, with 重组人PD-1蛋白(自产), with 重组人ICOS蛋白, with 重组人ICOSLG蛋白, with 重组人CD276蛋白 and in the assay with 重组人CD86蛋白 was “no binding (tested: 10μg/ml)” in each case. Further, the values for the binding result with 重组人CD28蛋白, with 重组人CTLA-4蛋白 and with 小鼠PD-L1 (on CHO cells) were “no binding (tested: 10μg/ml)”, “no binding (tested: 10μg/ml)” and “no binding (tested: 20μg/ml)”, respectively. Moreover, the EC50 with 人PD-L1 (on cells) is approximately 0.2 nM.

B5: 176L2H3 (antibody, V domains shown)
VH: QVQLQESGPGLVKPSETLSLTCAVYGDSITSGYWNWIRKPPGKKLEYIGYISYTGSTYQNPSLKSRITFSRDTSKNQYYLKLSSVTAADTAVYYCARSRAWIRTYFDYWGQGTLVTVSS
VL: EIVLTQSPDFQSVTPKEKVTITCSVSSSISSSNLHWYQQKPDQSPKPWIYGTSNLASGVPSRFSGSGSGTDYTLTINSLEAEDAATYYCQQWSSYPLTFGQGTKLEIKR
notes: Whole humanized mAb expressed in 293 cells; detected with anti-human IgG; also called 抗人PD-L1人源化抗体176L2H3
As to B5, the binding result with 重组人PD-L2蛋白, in the assay with 重组人PD-1蛋白(自产), with 重组人ICOS蛋白, with 重组人ICOSLG蛋白, in the assay with 重组人CD276蛋白 and with 重组人CD86蛋白 was “no binding (tested: 10μg/ml)” throughout. Also, the results for the binding result with 重组人CD28蛋白, in the assay with 重组人CTLA-4蛋白 and with 小鼠PD-L1 (on CHO cells) were “no binding (tested: 10μg/ml)”, “no binding (tested: 10μg/ml)” and “no binding (tested: 20μg/ml)”, respectively. Moreover, the concentration for a half-maximal effect (EC50) in the assay with 人PD-L1 (on cells) is approximately 0.2 nM.

B6: 176L1H3 (antibody, V domains shown)
VH: QVQLQESGPGLVKPSETLSLTCAVYGDSITSGYWNWIRKPPGKKLEYIGYISYTGSTYQNPSLKSRITFSRDTSKNQYYLKLSSVTAADTAVYYCARSRAWIRTYFDYWGQGTLVTVSS
VL: EIVLTQSPDFQSVTPKEKVTITCSVSSSISSSNLHWYQQKPDQSPKLWIYGTSNLASGVPSRFSGSGSGTDYTLTINSLEAEDAATYYCQQWSSYPLTFGQGTKLEIKR
notes: Whole humanized mAb expressed in 293 cells; detected with anti-human IgG; also called 抗人PD-L1人源化抗体176L1H3
On to B6, for which the binding result in the assay with 重组人PD-L2蛋白, in the assay with 重组人PD-1蛋白(自产), in the assay with 重组人ICOS蛋白, in the assay with 重组人ICOSLG蛋白, with 重组人CD276蛋白 and with 重组人CD86蛋白 was “no binding (tested: 10μg/ml)” in each case. Further, the binding result with 重组人CD28蛋白 is given as “no binding (tested: 10μg/ml)”; in the assay with 重组人CTLA-4蛋白 it was “no binding (tested: 10μg/ml)”; with 小鼠PD-L1 (on CHO cells), “no binding (tested: 20μg/ml)”. Moreover, in the assay with 人PD-L1 (on cells), the 50% effective concentration (EC50) is approximately 0.2 nM.
